Results published in PMC4793595.

Biological target: T1, MS2 coat protein (bacteriophage MS2), P03612
T1 chain: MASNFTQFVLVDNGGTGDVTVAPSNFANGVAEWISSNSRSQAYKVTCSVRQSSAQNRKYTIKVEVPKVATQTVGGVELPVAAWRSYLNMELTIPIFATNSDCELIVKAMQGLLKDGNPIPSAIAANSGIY
Test: native MS + AUC
Settings: remark: other sources report otherwise

B1: MS2 coat protein, P03612 1-130 (natural protein)
chain: T1 chain
B1 showed a stoichiometry N of 2.
